Holding throughout (conditions): protein: recombinant; tags: N-terminal His6; chain copies: 2; cyclic; no ends
In one series the target is T1, Csa3Sso F14A (Saccharolobus solfataricus P2, UniProt Q97Y88 1-237, F14A).
T1 sequence: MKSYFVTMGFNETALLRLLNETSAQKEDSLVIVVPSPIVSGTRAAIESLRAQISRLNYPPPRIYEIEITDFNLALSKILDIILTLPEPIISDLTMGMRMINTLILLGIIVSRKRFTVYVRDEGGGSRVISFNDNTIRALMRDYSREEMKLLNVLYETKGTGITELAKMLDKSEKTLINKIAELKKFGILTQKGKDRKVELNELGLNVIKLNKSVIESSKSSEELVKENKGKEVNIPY
Nature of the series: MST; nonspecific signal at high cA4 only; MST buffer not given in the material; Cy5 EMSA: 50 nM probe, 0.5-25 uM protein, 5% acrylamide TBE, 4 C; agarose EMSA: 2% TBE, room temperature; crystals: 20 mM.

A further series deals with T2, Csa3Sso R98A (Saccharolobus solfataricus P2, UniProt Q97Y88 1-237, R98A).
T2 sequence: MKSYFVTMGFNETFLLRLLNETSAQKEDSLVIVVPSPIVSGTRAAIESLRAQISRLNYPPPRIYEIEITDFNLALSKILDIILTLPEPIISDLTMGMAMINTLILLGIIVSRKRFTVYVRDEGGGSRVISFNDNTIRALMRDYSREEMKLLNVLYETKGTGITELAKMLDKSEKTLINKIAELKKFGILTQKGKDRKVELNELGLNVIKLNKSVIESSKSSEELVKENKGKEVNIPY
The description is as above.

In the next series the target is T3, Csa3Sso G96A (Saccharolobus solfataricus P2, UniProt Q97Y88 1-237, G96A).
T3 sequence: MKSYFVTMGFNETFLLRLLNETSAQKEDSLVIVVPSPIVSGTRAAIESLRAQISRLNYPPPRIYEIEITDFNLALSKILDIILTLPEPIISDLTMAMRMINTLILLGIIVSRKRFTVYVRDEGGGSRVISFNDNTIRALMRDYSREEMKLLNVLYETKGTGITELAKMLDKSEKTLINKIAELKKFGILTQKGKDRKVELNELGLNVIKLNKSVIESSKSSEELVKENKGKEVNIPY
The series is described as above.

In a further series the target is T4, Csa3Sso F10A (Saccharolobus solfataricus P2, UniProt Q97Y88 1-237, F10A).
T4 sequence: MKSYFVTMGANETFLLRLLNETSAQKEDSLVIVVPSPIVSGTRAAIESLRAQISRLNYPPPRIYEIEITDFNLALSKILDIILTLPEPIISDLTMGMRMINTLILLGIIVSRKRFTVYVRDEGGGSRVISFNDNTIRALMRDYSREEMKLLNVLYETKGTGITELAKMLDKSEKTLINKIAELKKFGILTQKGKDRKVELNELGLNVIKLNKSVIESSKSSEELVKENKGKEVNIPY
The description is as above.

The target of a further series is T5, Csa3Sso E122Q (Saccharolobus solfataricus P2, UniProt Q97Y88 1-237, E122Q).
T5 sequence: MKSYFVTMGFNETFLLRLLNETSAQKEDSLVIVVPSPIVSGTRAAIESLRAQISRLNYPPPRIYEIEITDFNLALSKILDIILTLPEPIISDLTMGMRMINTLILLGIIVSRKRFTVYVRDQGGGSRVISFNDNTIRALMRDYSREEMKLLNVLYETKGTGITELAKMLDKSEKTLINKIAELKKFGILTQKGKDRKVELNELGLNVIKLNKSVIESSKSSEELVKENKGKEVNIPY
Nature of the series: MST; MST buffer not given in the material; Cy5 EMSA: 50 nM probe, 0.5-25 uM protein, 5% acrylamide TBE, 4 C; agarose EMSA: 2% TBE, room temperature; crystals: 20 mM.

The target of the next series is T6, Csa3Sso E122A (Saccharolobus solfataricus P2, UniProt Q97Y88 1-237, E122A).
T6 sequence: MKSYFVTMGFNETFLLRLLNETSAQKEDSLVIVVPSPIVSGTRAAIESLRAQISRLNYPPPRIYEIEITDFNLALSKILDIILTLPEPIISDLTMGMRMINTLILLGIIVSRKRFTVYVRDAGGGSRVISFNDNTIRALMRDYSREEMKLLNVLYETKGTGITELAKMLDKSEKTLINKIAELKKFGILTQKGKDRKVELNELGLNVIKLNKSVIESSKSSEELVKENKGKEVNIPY
The series is described as above.

A word on the Kd: it is a measure of binding affinity in units of concentration. With AAAA (ssRNA, cyclic, 3'-5' linked tetra-adenylate (CHEBI:142457)) [cA4], the binding result with Csa3Sso F14A, in the series with Csa3Sso R98A, with Csa3Sso G96A and with Csa3Sso F10A was “no binding” each time. Besides, the Kd with Csa3Sso E122Q turned out to be 44.5 nM; with Csa3Sso E122A, 38.3 nM.
